Source: PMC11410778

Legend:
[1] = molecular target: cOmpT D267S/S276T (Escherichia coli (avian pathogenic strain E058)) (UniProt P09169)
[2] = molecular target: cOmpT S276T (Escherichia coli (avian pathogenic strain E058)) (UniProt P09169)
[3] = molecular target: cOmpT D267S (Escherichia coli (avian pathogenic strain E058)) (UniProt P09169)
[4] = molecular target: pOmpT T276S (Escherichia coli (avian pathogenic strain E058))
[5] = molecular target: plasmid-encoded OmpT (pOmpT or ArlC) of avian pathogenic Escherichia coli E058 (Escherichia coli (avian pathogenic strain E058))
[6] = molecular target: pOmpT S267D (Escherichia coli (avian pathogenic strain E058))
[7] = molecular target: pOmpT S267D/T276S (Escherichia coli (avian pathogenic strain E058))
[8] = molecular target: chromosome-encoded OmpT (cOmpT) of avian pathogenic Escherichia coli E058 (Escherichia coli (avian pathogenic strain E058)) (UniProt P09169)

synthetic FRET substrate 2Abz-SLGRKIQI-K(Dnp)-NH2 (peptide)
Km of cleavage of the FRET substrate by whole E. coli BL21 expressing the protease (0–240 μM substrate, Michaelis–Menten fit) [1]: 0.0408 µM | Km of cleavage of the FRET substrate by whole E. coli BL21 expressing the protease (0–240 μM substrate, Michaelis–Menten fit) [2]: 0.0475 µM | Km of cleavage of the FRET substrate by whole E. coli BL21 expressing the protease (0–240 μM substrate, Michaelis–Menten fit) [3]: 0.0167 µM | Km of cleavage of the FRET substrate by whole E. coli BL21 expressing the protease (0–240 μM substrate, Michaelis–Menten fit) [4]: 0.0157 µM | Km of cleavage of the FRET substrate by whole E. coli BL21 expressing the protease (0–240 μM substrate, Michaelis–Menten fit) [5]: 0.0667 µM | Km of cleavage of the FRET substrate by whole E. coli BL21 expressing the protease (0–240 μM substrate, Michaelis–Menten fit) [6]: 0.0281 µM | Km of cleavage of the FRET substrate by whole E. coli BL21 expressing the protease (0–240 μM substrate, Michaelis–Menten fit) [7]: 0.0215 µM | Km of cleavage of the FRET substrate by whole E. coli BL21 expressing the protease (0–240 μM substrate, Michaelis–Menten fit) [8]: 0.0107 µM
